# Results as given in the domain aggregation screens of Martell et al. (2025).
# Assay: soluble fraction after stress (log2 fold change); higher = more stays soluble; pooled small domains, quantitative proteomics
# Details: stress: 75 degC
# 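Also: 20 min heating vs room temperature control held 20 min.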
row,Sequence,soluble fraction (log2)
1,HMLPVDALFAQHPALIVTLGQTEKLKHGAAIRDWHFADGTYRVYSETGEFLLLGTVKGQILTTVKSFFE,-2.24
2,HMLQARKFTHIQGYEFEAEFLRTNGEFVELQDPQGRKKWFPISNFIQDDKDFIKEQAGNLSS,-0.309
3,HMLQEFTLELATAVVQEFRDQPGALINALHKLQETFGYVDEAAMPVLARLFNLSRAEVHGVASFYHDFRRS,-1.67
4,HMLQEHVLEIRHPSWNDAFRIIGHDGWRTQTGAHAAILSYDEEELNIKWDSWGYERFIRDEKGIFRLAA,-0.11
5,HMLQESDPEALRGIVKSVLVDHAAVAEEYRAGKQSVLQFLVGQGMKASKGAGNPGLIRDLMLEEL,-0.237
6,HMLQLSDAISRVESFLQGQNRNLAFSIDENTERSVVTVLDSDTGDVIRQIPSEELLVLAKRIQELQQD,-0.0104
7,HMLQMSDSSALEAILDEVLGSEMGQKALSDIEAGNMKAMGFIIGQSMKLSKGQANPQIINKLLQQRLK,-0.326
8,HMLQNLGFKPDLEIRHFPGIVLPDIHRSKKTISLLYTLLAGDIKKLPENEINYKDSKIISSYLWTLLRYH,0.103
9,HMLQSGSDYLIEQVRMYTATGQREYMDNYFEELNTTRRRENALEYFAEHYGDNDAFTLLKSAMTTSQN,-0.258
10,HMLQVRRILQLLADGYSKRQISQQTAVSRNTIDSYEDRFHLTGKSYQELLSMEDGELSGIVYP,-1.11
11,HMLQVSDENFVVELVQKVLLDNPSSVQEYKNGKESVLQFLIGQAMKASKGTANPQIVKEIMLKLL,-0.68
12,HMLQYSQEIEEAQKILQNLGLYKGEIDGINGVNTKSAIKEFQRKSGLIIDGILGPNTTSALSKGAESYITV,0.0721
13,HMLRISEEVWALVEKTLREDWSPEQVSGKLKASGISVSHERIYQHIYADKRVGGTLWTHLRR,-2.47
14,HMLRLLEIIAGNEVSKEINSQVIKYYKALKNKKIEEINNLTPSYNKLIISFDLKKKNFREMKKIIEDISIN,-0.136
15,HMLRPEEMIYHEMLDAILDRRLEPGMKLVEEDLAKTFGVSRARIRATFLQLAHDKLINLVPNRGAFVAEP,-2
16,HMLRRNQVQSQVIPRENGSYVVELQLRDDVDSILRLELTAATEAMARDLADRFRQDPEGVYTRLLSALY,-2.22
17,HMLRTEYLTVNYAKASEVAELVTASGFLSSRGSITVDERTNTLLLQDTATNIDEVRFMLEQLD,-0.366
18,HMLSADLLDKIQRIDSLEQQGKYAQAEKEARALLSDPSITPSERASVQNILSSIARKKAAQAQ,-0.064
19,HMLSAGTTEQRLAMLQYQWEKQSETYSALGPNNGVVTLGQIRNTMAKIAELAGFKDAAQFWMPVPMDYDV,-0.217
20,HMLSAPMPGTVLEVHVKEGQRVREGQTLVVMEAMKMEHRVQAPRAGVVTKLHYSEGDRVDVGAILVEIG,-1.34
21,HMLSAQEIPVEDIATRDFVLAEDVVSAKKVLLLPKGVDLSWFGSAKKRLVQRLKSEGVTHIRVFA,-2.06
22,HMLSFSEAERAVLSLLNRRPDLSAKALASELAVSARTVERYLQSLQQKGKLLRVGAKKGGYWQV,-0.842
23,HMLSGNLTADAHVHRGLQALSDGRNEDALVDFTKATEVQADFAEAWNKRATVNYLLGRYDAAVLDIQKTLE,0.257
24,HMLSLDDAAFERYDLTMREREVLLLLLNRLTYEEIAERLFISTNTVKTHVGNVYKKTGVSSRKELVSK,-1.26
25,HMLSLGQQIRNHVLSRIESGEWPEGSRIPSEAKLVELLGASRMTIHIALRDLSAEGVLLRKQGAGTFVAPR,-2.68
26,HMLSRKEVFTVSQKDIEKNPIGAADKFFDGHVGIHKLLVVDEEDRLRGLFTLSDIERINDEQ,0.179
27,HMLSRTYDSSGPDVKIRGTAQTVADKYMSLARDAQSSGDRVMAENYLQHAEHYNRIIAAAQAQ,0.34
28,HMLSSEQQQKLDSLSRKELEVAELVSHGATNKMIARTMNITERTVKAHLTAIFQKMNIPDRLSLAIFFRDL,-2.79
